Data published in the supplement of paper PMC12667976.

B1: library; numbered along this chain (parent)
chain: MATDAALRRLLRLHRTEIAVAVDSAFPLLHALADHDVVPEDKFQETLHLKEKEGCPQAFHALLSWLLTQDSTAILDFWRVLFKDYNLERYGRLQPILDSFPKDVDLSQPRKGRKPPAVPKALVPPPRLPTKRKASEEARAAAPAALTPRGTASPGSQLKAKPPKKPESSAEQQRLPLGNGIQTMSASVQRAVAMSSGDVPGARGAVEGILIQQVFESGGSKKCIQVGGEFYTPSKFEDSGSGKNKARSSSGPKPLVRAKGAQGAAPGGGEARLGQQGSVPAPLALPSDPQLHQKNEDECAVCRDGGELICCDGCPRAFHLACLSPPLREIPSGTWRCSSCLQATVQEVQPRAEEPRPQEPPVETPLPPGLRSAGEEVRGPPGEPLAGMDTTLVYKHLPAPPSAAPLPGLDSSALHPLLCVGPEGQQNLAPGARCGVCGDGTDVLRCTHCAAAFHWRCHFPAGTSRPGTGLRCRSCSGDVTPAPVEGVLAPSPARLAPGPAKDDTASHEPALHRDDLESLLSEHTFDGILQWAIQSMARPAAPFPS

Variants of: B1
Assay: AIRE transcriptional activation functional score (insulin promoter-GFP; nonsense median 0, synonymous median 1) (normalised score); higher = higher AIRE activity (more reporter activation)
Settings: with insulin promoter-GFP reporter in HEK293
Description: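 Deep mutational scan of full-length human AIRE (codon-optimized cDNA, DT-POPCode NNN libraries over three regions) integrated at a Bxb1 landing pad in HEK293 cells carrying an insulin core promoter-GFP reporter at a Flp-In site. Cells were sorted for the top 10% GFP about 14 days after transfection. Variant frequency log-ratios (select vs non-select, TileSeq) were rescaled so that the nonsense median is 0 and the synonymous median is 1, then averaged over biological replicates.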

AIRE transcriptional activation functional score of substitutions, site by site:
L81: R -0.201; K -1.81; E 0.209; F 0.331; I 0.143; G -0.169; N 1.87; H -1.4; W 0.0861; A -0.165; T 0.331; C 0.822; M -0.00473; V -0.437; D 0.439; P 0.303; S 0.123; Y 0.0857
K83: P -0.158; S 0.122; C 0.194; G -0.0227; L 0.753; A 0.537; M -0.821; I 0.0909; W 0.152; D -0.0712; E -0.351; T 0.432; Y -0.194; N 0.0819; R 0.00955; V -0.175; Q 0.546; H 0.338; F 0.177
F82: M -1.23; N -4.23; G 0.401; V 0.0231; T -0.086; D 0.364; P -0.365; L 0.0208; A -0.904; Y 0.443; C -0.279; R 0.341; S 0.375; K -0.492; Q 0.378; H 0.0485; W -0.557; I 0.234
G91: K -0.415; E 1.71; R 1.22; A 0.266; I -0.00302; H -0.774; T 0.431; W 1.54; D -0.369; C -0.103; V 0.766; F 0.132; P 0.488; L 0.236; Y 2.5; M 1.02; S 1.19
L87: V 0.869; Y -0.162; F -0.159; T 0.00113; R 1.14; N 0.531; H -0.266; W -0.816; C 0.115; I 1.66; A 0.0518; S 0.0056; D 0.374; Q 0.462; E 1.49; P 0.0832; G 0.476
R92: L -0.166; Y -0.675; P -0.2; D 0.169; V -0.0193; A -0.0922; Q 0.461; F 0.28; G 0.724; I -0.385; T -0.129; S 0.275; H 0.298; E -0.432; W 0.13; C 0.489
W78: S 0.301; G 0.214; E 0.582; F 0.409; K 0.0822; I 0.15; H 0.363; Q -2.24; C 0.126; P 0.554; N -0.791; D 0.137; R -0.0677; T 0.642; Y 0.346; M 0.308; V -0.0156; L 0.134; A 0.0338
Y85: G -1.95; K -1.13; E -2.83; L 0.211; R -0.639; D 0.0634; N -0.66; V 0.302; H -0.286; Q -2.11; T 0.418; I 0.794; F 0.722; S 0.113; C 0.367; W -1.85; P -0.276
V80: I 1.57; R -0.324; N -6.41; E -0.149; C -0.468; L 0.613; A -0.0867; M 0.629; H -0.971; F 0.527; S -0.226; Y 0.606; G 0.653
P95: Q 1.61; W 0.55; F 1.19; K 0.336; Y 1.97; H 0.425; V 1.12; N 1.56; T 1.34; E 0.792; A 1.12; R 0.995; C 0.979; L 1.38; S 0.715; I 0.95; D 0.444; M 1.41; G 1.01
D84: F -0.14; G 0.841; E 0.774; W 1.68; L -0.0937; S 1.11; P 0.652; I -0.4; V -0.00793; K -0.063; T 0.74; Q 0.343; N 0.535; R 0.794; C -0.0537; A 0.125; M -0.309; H 0.341; Y 0.473
N86: M 1.34; G -0.0879; R -0.161; A -0.248; P 0.153; T -0.124; V 1.33; F -0.398; E -0.323; K -0.0593; L 0.306; Q -0.241; D -1.05; C 0.345; Y 0.0334; I 0.0139; H -0.275; W -0.448; S 0.134
Q94: N -0.193; R 1.65; P 0.0425; W 1.53; F 0.133; I 1.17; A 1.44; Y 0.209; T 0.511; K 1.21; E 0.0511; M 1.89; L 0.662; S 0.266; V 1.42; D 0.228; G 0.865; C -0.262; H 0.885
L93: K -0.329; N 0.43; D -0.0637; P 0.0133; F 0.229; H -0.023; T -0.0548; A 0.124; Q -0.189; S -0.0816; I 0.258; W 0.0522; E 0.401; Y -0.417; G -0.0131; V 0.0157; R 0.0258; C -0.0574; M -0.0479
F77: S -0.182; V 0.192; Q -0.44; Y 0.195; P -0.416; R -0.0859; T 0.0954; W -0.255
R79: S 0.372; L 0.11; P -0.266; A 0.0777; C 0.278; V 0.88; M -0.695; W 0.0958; I 0.217; D 0.209; H 1.25; G 0.275; T -2.81; Q 0.112; F 0.705
E88: L 0.861; S 0.402; I 0.434; R 2.71; F 0.0961; M 0.132; W 0.779; G -0.0199; Q 1.91; D 0.357; K 0.437; A 1.18; T 1.95; V 0.181; C 0.444
I96: D -0.0149; A -0.165; R 0.0358; L 0.547; C -0.194; F 0.253; H 1.08; N 0.24; P -0.0986; S -0.438; M -0.371; K 0.201; Q -1.73; E 0.112; T -1.01; G -0.689
R89: L -0.165; M -2.04; V -3.54; W 0.927; H 0.994; G 0.255; A 0.812; C 0.253; P -1.08; F 1.93; Q 0.475; S 1.8
Y90: G -0.388; L 0.0613; W -0.215; S -0.169; F 0.00136; K -0.475; C 0.198; A 0.366; Q -0.537; T 0.376; D 0.18; R 0.13; E -0.843; P 0.0423; H 0.364; N 0.194; M 0.613; V 0.153; I -0.0337
